From paper doi:10.1101/2022.10.04.510915

Tests used:
[1] = molecular target: JetB (E. coli GF4-3), as subunit of the JetABC complex (E. coli strain GF4-3); test: cryo-EM structure
[2] = molecular target: JetC (E. coli GF4-3), as subunit of the JetABC complex (E. coli strain GF4-3); test: cryo-EM structure

stoichiometry N [1]	stoichiometry N [2]	Substance
2		JetB (E. coli GF4-3), as subunit of the JetABC complex (natural protein)
	2	JetC (E. coli GF4-3), as subunit of the JetABC complex (natural protein)
